Data taken from article PMC7610145, “Transglutaminase-Mediated Cross-Linking of Tropoelastin to Fibrillin Stabilises the Elastin Precursor Prior to Elastic Fibre Assembly” (Journal of Molecular Biology, 2020).

What was measured:
Conditions in all cases: both partners purified
[1] = target: T1, tropoelastin, SHELΔ26A (Synthetic Human Elastin without domain 26A) (human, UniProt P15502-2 27-724); assay: SEC; PF2 and TE incubated with TG2 at a 1:1 ratio, separated on a Superose 6 column in 10 mM Hepes, 500 mM NaCl, 1 mM CaCl2 (pH 7.4); fractions on SDS-PAGE
T1 construct: human tropoelastin without domain 26A; residues 27–724, the 60 kDa mature form of the secreted protein following removal of the signal peptide; the precursor counted on has 724 residues (isoform lacking domain 26A); contains K38 in domain 4; also called TE; full-length TE; source: expressed in bacteria, purified as described previously [23]
T1 sequence (looked up): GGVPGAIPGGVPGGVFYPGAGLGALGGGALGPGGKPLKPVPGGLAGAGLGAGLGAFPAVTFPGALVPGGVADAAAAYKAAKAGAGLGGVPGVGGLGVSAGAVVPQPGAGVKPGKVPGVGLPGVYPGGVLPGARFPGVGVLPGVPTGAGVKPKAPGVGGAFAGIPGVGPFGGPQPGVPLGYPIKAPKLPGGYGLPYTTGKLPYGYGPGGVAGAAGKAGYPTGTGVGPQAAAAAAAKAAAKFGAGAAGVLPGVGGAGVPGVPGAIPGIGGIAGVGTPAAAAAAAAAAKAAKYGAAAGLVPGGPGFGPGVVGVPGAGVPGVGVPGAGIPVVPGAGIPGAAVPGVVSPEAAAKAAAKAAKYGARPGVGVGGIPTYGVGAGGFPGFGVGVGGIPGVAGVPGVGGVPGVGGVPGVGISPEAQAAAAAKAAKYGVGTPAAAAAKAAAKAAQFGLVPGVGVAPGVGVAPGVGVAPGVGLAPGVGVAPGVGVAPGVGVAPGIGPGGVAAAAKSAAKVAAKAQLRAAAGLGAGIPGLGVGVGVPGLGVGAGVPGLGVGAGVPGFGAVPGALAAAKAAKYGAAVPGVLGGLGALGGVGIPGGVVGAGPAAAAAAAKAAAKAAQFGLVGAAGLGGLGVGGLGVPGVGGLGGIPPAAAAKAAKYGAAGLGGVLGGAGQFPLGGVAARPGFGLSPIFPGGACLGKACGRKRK

[2] = target: T1, tropoelastin, SHELΔ26A (Synthetic Human …); assay: SEC-MALS; TG2 cross-linked complex eluting at ~10 ml, 0.5 mg/ml, Superose 6, 10 mM Tris–HCl (pH 7.4), 150 mM NaCl
[3] = target: T1, tropoelastin, SHELΔ26A (Synthetic Human …); assay: cross-linking; PF2 and TE incubated alone or together (1:1 or 2:1) at 16 °C for 2 h in 10 mM Hepes, 500 mM NaCl, 1 mM CaCl2 (pH 7.4), then with or without TG2 from guinea pig liver for a further 4 h; read by SDS-PAGE

B1: fibrillin-1 PF2 fragment (domains TB1 to TB2, encoded by exons 9–17), natively glycosylated (domain or fragment)
chain: not shown
modifications: N-linked glycan at N448
notes: fibrillin-1, fragment encompassing domains TB1 to TB2, encoded by exons 9–17; includes Q669 (TB2); SAXS data on PF2, TE and the complex are deposited in the SASDB (SAS2517, 2518, 2519); also called fibrillin PF2; fibrillin PF2 construct
stoichiometry of the larger species [1]: 2 copies of each (2:2) | stoichiometry N [2]: ~1 PF2:TE | stoichiometry N [3]: 1 PF2:TE
